Target: Full-length human KLHL41 GST fusion protein (human) (UniProt O60662)
Experiment: AlphaScreen or HTRF

Sequence of UniProt O60662 (O60662 whole entry, the tested form may be a part): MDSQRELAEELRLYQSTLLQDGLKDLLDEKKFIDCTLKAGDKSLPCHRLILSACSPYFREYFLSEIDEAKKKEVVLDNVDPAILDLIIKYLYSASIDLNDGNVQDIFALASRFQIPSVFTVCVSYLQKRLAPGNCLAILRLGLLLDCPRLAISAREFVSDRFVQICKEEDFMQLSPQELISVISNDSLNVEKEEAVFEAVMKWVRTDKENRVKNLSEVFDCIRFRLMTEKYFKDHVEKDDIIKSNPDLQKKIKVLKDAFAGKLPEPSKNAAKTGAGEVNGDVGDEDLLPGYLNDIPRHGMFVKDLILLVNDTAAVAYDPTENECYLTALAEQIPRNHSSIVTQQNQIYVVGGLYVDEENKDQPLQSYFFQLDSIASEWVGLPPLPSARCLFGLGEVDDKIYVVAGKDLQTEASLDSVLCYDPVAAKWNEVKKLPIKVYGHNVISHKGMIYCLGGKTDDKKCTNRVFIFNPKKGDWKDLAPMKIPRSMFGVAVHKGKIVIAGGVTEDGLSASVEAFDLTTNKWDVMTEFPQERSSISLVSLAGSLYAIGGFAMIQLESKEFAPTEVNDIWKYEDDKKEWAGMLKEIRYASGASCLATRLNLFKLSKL

delta F% (HTRF, 10nM KLHL41 and 100nM NEB): 950%
Substance: Human NEB (aa 5647-5849) MBP-HA fusion protein (from UniProt P20929 5647-5849) (domain or fragment)

From publication doi:10.1101/487454
